System: MS2 coat protein
Experiment: apparent KD of MS2 coat protein; designed switch direction (-1 OFF switch, 1 ON switch): -1; higher = weaker reporter binding
Procedure, shortened: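 Designed RNA switches with common flanks were transcribed on Illumina chips by stalled E. coli RNA polymerase and titrated with SNAP-549-labelled MS2 coat protein, from 0.7 or 1.5 nM doubling to 3 µM, in Tris-HCl pH 7.5 buffer with KCl, MgCl2, BSA, DTT, tRNA and Tween-20. Steps lasted 0.8–1.5 h (lowest) to 10–20 min (highest). Titrations ran without input, with 200 uM small-molecule ligand, or with an oligonucleotide input. Normalised cluster fluorescence was curve-fitted, and apparent KD is the per-design median over clusters.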

[1] = input ligand: microRNA oligo, concentration not stated
[2] = Eterna round: R95, input ligand: FMN 200 uM
[3] = Eterna round: R95, input ligand: microRNA oligo, concentration not stated
[4] = Eterna round: R95, input ligand: none

Row | Sequence | apparent KD of MS2 coat protein (input ligand: FMN 200 uM) | apparent KD of MS2 coat protein [1] | apparent KD of MS2 coat protein (input ligand: none) | apparent KD of MS2 coat protein [2] | apparent KD of MS2 coat protein [3] | apparent KD of MS2 coat protein [4]
1 | GCGGAUUAUGUAGGAUAUCGGUCAGUUUCUGAUCGAGAAGGACAUGAGGAUCACCCAUGUAAAUUGCCCGCUUUGUGGGUCCGC [JL ENG1 3.62] (Eterna round: R96, puzzle: Exclusion NG 1) | 41.7 nM | 15 nM | 15.7 nM |  |  | 
2 | AGAGUGCUGCGAGGAUAUACAUGAGGAUCACCCAUGUAAUCGUGUGAGGCAAAGCCUCACACGAUGUAGAAGGCGCAGUACUCA [Mat - Exclusion NG 2 - Mod of JL - D24] (Eterna round: R96, puzzle: Exclusion NG 2) | 13.1 nM | 12.8 nM | 16.7 nM |  |  | 
3 | GUGAUGUAGCACAAUAAGUUUUUUGCCGUCUUAGGUCCAACAUGAGGAUCACCCAUGUACGUCUACAUGCACUUUAA [Veveuslabe] (puzzle: Sensor v3, turn-off variant 2) |  |  |  | 66.4 nM | 197 nM | 81.2 nM
4 | AGUAGUAGUAUCCGAUCCUACAUGAGGAUCACCCAUGUAGCUAGACGUGCACGCGAUGCUCGUCAGACUGCCAGAUG [salish99_TOv1_r3_049] (puzzle: Sensor v3, turn-off variant 1) |  |  |  | 95.4 nM | 97.8 nM | 128 nM
5 | GCGUACUGAGGAUAUACAUGAGGAUCACCCAUGUGAAGAAGAAAGUAGUGAUGGUUAAGUAGAAGGCAGUAUGC [JR_Ex3_Sub063] (Eterna round: R97, puzzle: Exclusion 3) | 411 nM |  | 113 nM |  |  | 
6 | AAUAAGCGAGGAUAUACUAUUCCUCGACCGGCAGAAACCGGACUUGAGGAUCACCCAAGUAGAAGGCGCAAAAC [Oninso] (Eterna round: R97, puzzle: Exclusion 2) | 448 nM |  | 32.8 nM |  |  | 
7 | AAACCCAGAGGAUAUGCUGACUCCGACAUGAGGAUCACCCAUGUAGCGACUCUUCAUGCAGCAGAAGGUUGAUUUU [Eternabot (L1) Solution 66] (Eterna round: R97, puzzle: Exclusion 5) | 235 nM |  | 271 nM |  |  | 
8 | AAAUAGAAAGGAUAUACAGGCAUCCUUACCAGAGCGAGCUCACAUGAGGAUCACCCAUGUAGAAGGUUCAUAGC [EX2 C.17] (Eterna round: R97, puzzle: Exclusion 2) | 34.9 nM |  | 31.8 nM |  |  | 
9 | GCUUGUGGGCAAGGAUAUCCUGCGCUGUUCUGGUUCGUGUCUGUCACAUGAGGAUCACCCAUGUGGGAGAAGGUGCCUUUGGUG [Design 64] (Eterna round: R96, puzzle: Exclusion NG 2) | 13.4 nM | 10.9 nM | 14.9 nM |  |  | 
10 | UUUUUGUCAGGAUAUGAUUAGAUCUACUUCGGUAGAUCUAAUCAGAAGGGACAUGAGGAUCACCCAUGUAGUUU [Ex4 - 3 - 12] (puzzle: Exclusion 4) |  |  |  |  | 35.2 nM | 
11 | CAGUACUGAGGAUAUACAUGAGGAUCACCCAUGUGUUCCAGCUAGGAAACUAGCAUAAGUAGAAGGCAGUACUG [salish99_ex3_r3_091x] (Eterna round: R96, puzzle: Exclusion 3) | 461 nM | 18.4 nM | 23.6 nM |  |  | 
12 | UUUAAUUUUUUUUUUUUACAAGCUUUUUGCUCGUCUUAUACAUGAGGAUCACCCAUGUAAAUGGGAGAUAAAUUAUC [JMF 17] (puzzle: Sensor v3, turn-off variant 2) |  |  |  | 95.9 nM | 52.4 nM | 92.3 nM
13 | UAGAAAUUCAACGAGUGAAACAUGAGGAUCACCCAUGUGGUGGUAAGGAACAAGCUUUUUGCACGUACUUAUAAGAA [JR_SV3TOV1_Sub003] (puzzle: Sensor v3, turn-off variant 1) |  |  |  | 239 nM | 422 nM | 437 nM
14 | GGGUAGUGAGGAUAUCGUUGUUAGGAGGAGAAGGUAGGAGGCGAGAAGGCACAUGAGGAUCACCCAUGUAUGAG [JR_Exclu4_Sub064] (puzzle: Exclusion 4) |  |  |  |  | 26.9 nM | 
15 | AAUAACAAGCCGAUCCUCAACAUGAGGAUCACCCAUGUGCUCGUCUUGUAAAGUACUAUCACGAAAGUGAUAGUACA (Eterna round: R97, puzzle: Sensor, turn-off variant 1) | 319 nM |  | 419 nM |  |  | 
16 | GGUCUACAUGAGGAUCACCCAUGUAAGGAUAUCGUCACUGGAGCUGCGGCUCCAGUGACGAGAAGGUGCAUAAU [E1/11-A3] (Eterna round: R97, puzzle: Exclusion 1) | 39.4 nM |  | 30.8 nM |  |  | 
17 | GGUGCGUAUGUGAGGAUAUGCUGGUCCUUGGAUCGGCAGAAGGCACAUGAGGAUCACCCAUGUGGUGUCGUACG [salish99_Bmod_ex4_078] (puzzle: Brourd's mod of Exclusion 4) |  |  |  |  | 51.8 nM | 

Row | Sequence | apparent KD of MS2 coat protein (input ligand: FMN 200 uM) | apparent KD of MS2 coat protein [1] | apparent KD of MS2 coat protein (input ligand: none) | apparent KD of MS2 coat protein [2] | apparent KD of MS2 coat protein [3] | apparent KD of MS2 coat protein [4]
18 | AUCAUGUCAGGAUAUGUGACAUGGAUCUUCGGAUCAAGAUCACAGAAGGGACAUGAGGAUCACCCAUGUCGAUC [Ex4-3: 29] (puzzle: Exclusion 4) |  |  |  |  | 66.9 nM | 
19 | CCGCAAAUGCAGGAUAUCGUAUCGGAAACGAUACGAGAAGGGUAAACAUGAGGAUCACCCAUGUUCCUUAACGG [Mat - Exclusion 6 - Eli Mod - D98] (Eterna round: R96, puzzle: Exclusion 6) | 15.5 nM | 13.1 nM | 18.1 nM |  |  | 
20 | AUAAAGAAUGUUAGGAUAUUGGUGAAUAGGCUGACUAAGAAGGAACAUGAGGAUCACCCAUGUAACAUGGAAAA [Tiinzaesqu] (puzzle: Brourd's mod of Exclusion 4) |  |  |  | 68.8 nM | 24.5 nM | 33.6 nM
21 | GUACGCUCAGGAUAUCAAGGGCUGUACAUGAGGAUCACCCAUGUUAUCUUGGUGUCAGCGUGAGAAGGGAGGGAAA [Xesoonesa] (Eterna round: R96, puzzle: Exclusion 5) | 27.2 nM | 20.2 nM | 28.6 nM |  |  | 
22 | ACAAGCUUGUAAUCAUUUAACAUGAGGAUCACCCAUGUAAAUGGAAGAACCAAUUUGAUAUGAUUUACUCGUCUUAU [JR_STOV1_Sub009] (Eterna round: R97, puzzle: Sensor, turn-off variant 1) | 257 nM |  | 267 nM |  |  | 
23 | AAAAAAUUGAGAGGAUAUGGUGCCGAAACGGUGCUAGAAGGUUUUAUAAAAAAACAUGAGGAUCACCCAUGUUCAUGUAAAAAA [AK ExNG1-1] (Eterna round: R96, puzzle: Exclusion NG 1) | 17.2 nM | 16.1 nM | 18 nM |  |  | 
24 | GCCUCACAUGAGGAUCACCCAUGUCAGGAUAUACCCAUCCAGCGAAAUAAACGCUGUAGUAGAAGGGACAUGCA [Anlaat] (Eterna round: R97, puzzle: Exclusion 1) | 40.3 nM |  | 15.3 nM |  |  | 
25 | CAGCGAACAGGAUAUACAUGAGGAUCACCCAUGUGUUCCAGCUAGGAAACUAGCAAAUGUAGAAGGGUUCGCUG [Mat - Exclusion 3 - JL Mod - D2] (Eterna round: R97, puzzle: Exclusion 3) | 584 nM |  | 324 nM |  |  | 
26 | GUGUUGCGAGGAUAUAUAAGGGUAUGUUCUUGAGGUAUGGAACAUGAGGAUCACCCAUGUAGAAGGUGCAUAAC [JR_Ex2_Sub045] (Eterna round: R97, puzzle: Exclusion 2) | 507 nM |  | 247 nM |  |  | 
27 | GAUCCACAUGAGGAUCACCCAUGUGAGGAUAUGAUACUAUGUACUUCGGUACAUAGUAUCAGAAGGCAUAUGAA [Ex1-3: 47] (puzzle: Exclusion 1) |  |  |  |  | 45.6 nM | 
28 | UGGGUCCAAGGAUAUACAUGAGGAUCACCCAUGUGAGAUUCGAUGCUGUGCCAAUUGUGUAGAAGGUGGCCACC [Eternabot (L2) Solution 32] (Eterna round: R97, puzzle: Exclusion 3) | 45.3 nM |  | 44.1 nM |  |  | 
29 | AUCAGCUCGUGAGGAUAUACAUGCGUGCUUCGGCACGAAUUUAAGAUCACAUGAGGAUCACCCAUGUAGAAGGCACGAGCUGAU [ENG2/3-A3] (Eterna round: R96, puzzle: Exclusion NG 2) | 1880 nM | 538 nM | 520 nM |  |  | 
30 | CUCUGCACGCUGCGGUCCUACAUGAGGAUCACCCAUGUGGUCUGGUGGCGUGGGUCGCCGGACUUGGCUCGUCUUGG [salish99_S_TOV1_R5_047] (Eterna round: R97, puzzle: Sensor, turn-off variant 1) | 15.4 nM |  | 15.8 nM |  |  | 
31 | UAUUCACAUGAGGAUCACCCAUGUCAGGAUAUAGAAGCGUAGUCCGCAAGAAAGCUUACUAGAAGGGACGUAUU [EX1 B.22] (Eterna round: R97, puzzle: Exclusion 1) | 18.8 nM |  | 18.5 nM |  |  | 
32 | GCUGGUCGAGGAUAUACAUGAGGAUCACCCAUGUGAUUAGCAGUCCUCGGACUGCAAUGUAGAAGGUGACCAGC [E3/2-B1] (Eterna round: R97, puzzle: Exclusion 3) | 907 nM |  | 198 nM |  |  | 
33 | GUCAGCUCGUGAGGAUAUACAUGAGGAUCACCCAUGUGAUCAAUAGCAGCUUCGGCUGCAUUAAUGUAGAAGGUACGAGCUGAU [ENG2/5-C2] (Eterna round: R96, puzzle: Exclusion NG 2) | 105 nM | 231 nM | 463 nM |  |  | 
34 | ACUAGAUGAGGAUAUGCAUAUUUUCGUGUUCUUCUAGAUUAACAUGAGGAUCACCCAUGUAGAAGGCGUCUGGA [Exclusion 2 - 18] (puzzle: Exclusion 2) |  |  |  |  | 17.6 nM | 
